Assay results: the supplement of paper PMC9112550, “Optimization of the antimicrobial peptide Bac7 by deep mutational scanning” (BMC Biology, 2022)

Test system: Escherichia coli TOP10
Assay: shrunken log2 fold change of peptide-encoding DNA abundance (4.5 h post-induction vs induction); higher = less antimicrobial activity (less host growth inhibition)
Details: time post-induction: 4.5 h; library: site-saturation at positions 5, 18, 19, 20
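Note: peptides expressed intracellularly from a pBAD plasmid library in pooled LB shake-flask culture, induced with 0.3% L-arabinose, DNA abundance read by NGS, three biological replicates, DESeq2 with apeglm shrinkage.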

Row | Sequence | shrunken log2 fold change
1 | RRIRMRPPRLPRPRPRPLEYPRP | 0.0611
2 | RRIRCRPPRLPRPRPRPDMGPRP | -0.406
3 | RRIRPRPPRLPRPRPRPDKMPRP | 0.0748
4 | RRIRYRPPRLPRPRPRPDNAPRP | -0.0635
5 | RRIRCRPPRLPRPRPRPGSHPRP | -0.0784
6 | RRIRWRPPRLPRPRPRPPLAPRP | 1.63
7 | RRIRCRPPRLPRPRPRPKDQPRP | -0.0507
8 | RRIRLRPPRLPRPRPRPDHKPRP | -0.257
9 | RRIRNRPPRLPRPRPRPCYGPRP | -0.102
10 | RRIRGRPPRLPRPRPRPCYGPRP | -0.277
11 | RRIRPRPPRLPRPRPRPPYIPRP | -0.251
12 | RRIRYRPPRLPRPRPRPIGDPRP | -0.00783
13 | RRIRPRPPRLPRPRPRPLYNPRP | -0.623
14 | RRIRNRPPRLPRPRPRPRKNPRP | 0.161
15 | RRIRHRPPRLPRPRPRPFVKPRP | -1.48
16 | RRIRHRPPRLPRPRPRPCRNPRP | -0.166
17 | RRIRSRPPRLPRPRPRPFTLPRP | -0.163
18 | RRIRWRPPRLPRPRPRPVFWPRP | 0.386
19 | RRIRPRPPRLPRPRPRPPYPPRP | -0.0364
20 | RRIRNRPPRLPRPRPRPWNHPRP | -0.612
21 | RRIRDRPPRLPRPRPRPGLHPRP | -6.57e-05
22 | RRIRLRPPRLPRPRPRPVSYPRP | -0.0976
23 | RRIRRRPPRLPRPRPRPPCAPRP | 0.667
24 | RRIRVRPPRLPRPRPRPLYSPRP | -0.343
25 | RRIRNRPPRLPRPRPRPDHPPRP | -0.0362

Row | Sequence | shrunken log2 fold change
26 | RRIRLRPPRLPRPRPRPYVLPRP | -0.0278
27 | RRIRFRPPRLPRPRPRPSNMPRP | -0.935
28 | RRIRPRPPRLPRPRPRPCHAPRP | -0.242
29 | RRIRCRPPRLPRPRPRPCDPPRP | -0.0532
30 | RRIRLRPPRLPRPRPRPYANPRP | -0.165
31 | RRIRKRPPRLPRPRPRPPELPRP | 0.23
32 | RRIRFRPPRLPRPRPRPIVVPRP | -0.0214
33 | RRIRHRPPRLPRPRPRPAIFPRP | -0.00284
34 | RRIRSRPPRLPRPRPRPWWMPRP | -0.0399
35 | RRIRFRPPRLPRPRPRPGPRPRP | 0.618
36 | RRIRHRPPRLPRPRPRPPCWPRP | 0.142
37 | RRIRFRPPRLPRPRPRPAIWPRP | 0.195
38 | RRIRYRPPRLPRPRPRPEIGPRP | 0.066
39 | RRIRVRPPRLPRPRPRPEYNPRP | -0.185
40 | RRIRCRPPRLPRPRPRPMHYPRP | -0.24
41 | RRIRLRPPRLPRPRPRPHNVPRP | 0.0245
42 | RRIRDRPPRLPRPRPRPKDRPRP | 0.0874
43 | RRIRGRPPRLPRPRPRPERMPRP | 0.251
44 | RRIRQRPPRLPRPRPRPNFLPRP | -0.492
45 | RRIRLRPPRLPRPRPRPDNRPRP | -0.0526
46 | RRIRPRPPRLPRPRPRPMGKPRP | -0.0536
47 | RRIRERPPRLPRPRPRPHVHPRP | -0.315
48 | RRIRSRPPRLPRPRPRPYICPRP | -0.959
49 | RRIRFRPPRLPRPRPRPINVPRP | -0.195
50 | RRIRGRPPRLPRPRPRPDDNPRP | 0.484

Row | Sequence | shrunken log2 fold change
51 | RRIRCRPPRLPRPRPRPLYAPRP | -0.3
52 | RRIRARPPRLPRPRPRPIPVPRP | 0.161
53 | RRIRWRPPRLPRPRPRPGGVPRP | 0.427
54 | RRIRGRPPRLPRPRPRPCLKPRP | 0.213
55 | RRIRGRPPRLPRPRPRPSLIPRP | 0.211
56 | RRIRVRPPRLPRPRPRPVFPPRP | 0.038
57 | RRIRDRPPRLPRPRPRPEDQPRP | 0.0219
58 | RRIRQRPPRLPRPRPRPGFSPRP | 0.00737
59 | RRIRKRPPRLPRPRPRPKKFPRP | 0.0892
60 | RRIRFRPPRLPRPRPRPQPAPRP | 0.652
61 | RRIRTRPPRLPRPRPRPVMSPRP | -0.123
62 | RRIRLRPPRLPRPRPRPMKIPRP | -0.028
63 | RRIRRRPPRLPRPRPRPQGWPRP | 0.294
64 | RRIRQRPPRLPRPRPRPGYNPRP | -0.185
65 | RRIRERPPRLPRPRPRPAWPPRP | 0.359
66 | RRIRVRPPRLPRPRPRPHYFPRP | -0.00578
67 | RRIRARPPRLPRPRPRPYLRPRP | -0.228
68 | RRIRERPPRLPRPRPRPREWPRP | 0.325
69 | RRIRIRPPRLPRPRPRPGTMPRP | -0.112
70 | RRIRPRPPRLPRPRPRPGKDPRP | 0.0142
71 | RRIRWRPPRLPRPRPRPHEYPRP | -0.147
72 | RRIRDRPPRLPRPRPRPHKHPRP | -0.217
73 | RRIRHRPPRLPRPRPRPLDCPRP | -0.384
74 | RRIRMRPPRLPRPRPRPGYCPRP | 0.0615
75 | RRIRFRPPRLPRPRPRPKTDPRP | -0.0282

Row | Sequence | shrunken log2 fold change
76 | RRIRKRPPRLPRPRPRPGVNPRP | 0.213
77 | RRIRDRPPRLPRPRPRPLKPPRP | -0.00274
78 | RRIRLRPPRLPRPRPRPVILPRP | -1
79 | RRIRRRPPRLPRPRPRPAKCPRP | 0.0405
80 | RRIRSRPPRLPRPRPRPWKSPRP | -0.0239
81 | RRIRFRPPRLPRPRPRPRRVPRP | 0.258
82 | RRIRERPPRLPRPRPRPRYMPRP | -0.785
83 | RRIRERPPRLPRPRPRPEDIPRP | -0.00136
84 | RRIRVRPPRLPRPRPRPSNIPRP | -0.526
85 | RRIRSRPPRLPRPRPRPDWMPRP | 0.0892
86 | RRIRPRPPRLPRPRPRPFMAPRP | -0.305
87 | RRIRRRPPRLPRPRPRPLVHPRP | 0.223
88 | RRIRGRPPRLPRPRPRPHWKPRP | 0.184
89 | RRIRPRPPRLPRPRPRPFTTPRP | -0.0187
90 | RRIRSRPPRLPRPRPRPANPPRP | 0.11
91 | RRIRCRPPRLPRPRPRPIRRPRP | 0.119
92 | RRIRPRPPRLPRPRPRPPCEPRP | 0.522
93 | RRIRPRPPRLPRPRPRPTFWPRP | 0.333
94 | RRIRPRPPRLPRPRPRPFLKPRP | -0.159
95 | RRIRRRPPRLPRPRPRPWLCPRP | 0.102
96 | RRIRPRPPRLPRPRPRPLVLPRP | 0.0114
97 | RRIRVRPPRLPRPRPRPKADPRP | 0.0681
98 | RRIRVRPPRLPRPRPRPSLKPRP | 0.215
99 | RRIRKRPPRLPRPRPRPWIKPRP | -0.00314
100 | RRIRNRPPRLPRPRPRPTQNPRP | 0.332

Row | Sequence | shrunken log2 fold change
101 | RRIRGRPPRLPRPRPRPSPFPRP | 0.168
102 | RRIRERPPRLPRPRPRPHDGPRP | -0.532
103 | RRIRWRPPRLPRPRPRPRQTPRP | 0.0702
104 | RRIRHRPPRLPRPRPRPHHCPRP | -0.152
105 | RRIRWRPPRLPRPRPRPLNMPRP | -0.832
106 | RRIRHRPPRLPRPRPRPVSSPRP | -0.0295
107 | RRIRARPPRLPRPRPRPDTHPRP | 0.0877
108 | RRIRRRPPRLPRPRPRPAHIPRP | 0.0825
109 | RRIRRRPPRLPRPRPRPITCPRP | -0.307
110 | RRIRTRPPRLPRPRPRPNRHPRP | -0.36
111 | RRIRARPPRLPRPRPRPITYPRP | -0.0353
112 | RRIRRRPPRLPRPRPRPRWSPRP | 0.498
113 | RRIRLRPPRLPRPRPRPPPIPRP | 0.935
114 | RRIRSRPPRLPRPRPRPPSPPRP | 0.376
115 | RRIRFRPPRLPRPRPRPAKPPRP | 0.901
116 | RRIRRRPPRLPRPRPRPCCNPRP | -0.029
117 | RRIRPRPPRLPRPRPRPNVQPRP | 0.0803
118 | RRIRGRPPRLPRPRPRPHEAPRP | -0.000398
119 | RRIRIRPPRLPRPRPRPCLIPRP | -0.337
120 | RRIRHRPPRLPRPRPRPGMAPRP | 0.0763
121 | RRIRQRPPRLPRPRPRPDSSPRP | 0.00797
122 | RRIRSRPPRLPRPRPRPTNSPRP | -0.24
123 | RRIRIRPPRLPRPRPRPRTHPRP | -0.372
124 | RRIRGRPPRLPRPRPRPWEMPRP | 0.0928
125 | RRIRKRPPRLPRPRPRPRWLPRP | 0.796
